In paper PMC5708760:

Target: flag-tagged ErbB2 (Xenopus laevis, wild type) (Xenopus laevis)

recombinant EC1-3 (bacEC) (domain or fragment)
phospho-Akt (S473) by western blot, normalised to GFP-myc, in ErbB2-transfected, serum-starved Hek293T cells treated with 10 ng/mL bacEC for 1 to 60 minutes: 20%
